{"source": "paper PMC5484391", "about": "(Cell, 2017)", "biological_target": "the molecule itself", "experiment": "cryo-EM structure"}
{"protein": "hERGTs (human hERG, truncated construct lacking residues 141–380 and 871–1005) (natural protein, UniProt Q12809 1-1159, looked up) MPVRRGHVAPQNTFLDTIIRKFEGQSRKFIIANARVENCAVIYCNDGFCELCGYSRAEVMQRPCTCDFLHGPRTQRRAAAQIAQALLGAEERKVEIAFYRKDGSCFLCLVDVVPVKNEDGAVIMFILNFEVVMEKDMVGSGADVLPEYKLQAPRIHRWTILHYSPFKAVWDWLILLLVIYTAVFTPYSAAFLLKETEEGPPATECGYACQPLAVVDLIVDIMFIVDILINFRTTYVNANEEVVSHPGRIAVHYFKGWFLIDMVAAIPFDLLIFGSGSEELIGLLKTARLLRLVRVARKLDRYSEYGAAVLFLLMCTFALIAHWLACIWYAIGNMEQPHMDSRIGWLHNLGDQIGKPYNSSGLGGPSIKDKYVTALYFTFSSLTSVGFGNVSPNTNSEKIFSICVMLIGSLMYASIFGNVSAIIQRLYSGTARYHTQMLRVREFIRFHQIPNPLRQRLEEYFQHAWSYTNGIDMNAVLKGFPECLQADICLHLNRSLLQHCKPFRGATKGCLRALAMKFKTTHAPPGDTLVHAGDLLTALYFISRGSIEILRGDVVVAILGKNDIFGEPLNLYARPGKSNGDVRALTYCDLHKIHRDDLLEVLDMYPEFSDHFWSSLEITFNLRDTNMIPGGRQYQELPRCPAPTPSLLNIPLSSPGRRPRGDVESRLDALQRQLNRLETRLSADMATVLQLLQRQMTLVPPAYSAVTTPGPGPTSTSPLLPVSPLPTLTLDSLSQVSQFMACEELPPGAPELPQEGPTRRLSLPGQLGALTSQPLHRHGSDPGS", "values": [{"measurement": "binding result", "result": "binds"}]}
